This is an account of results in patent publication US20190271704.

Data set [1] has as its target T1, NE nanosensor with heptafluorobutylamine reporter (peptide-PFC conjugated to a 40 kDa 8-arm PEG scaffold).
T1 chain: CKKKXXXX

For data set [2], the target named is T2, NE peptide substrate with acetylated N-terminal CKKK-PEG4 linker and C-terminal heptafluorobutylamine reporter (peptide-PFC) (not fully specified).
T2 chain: CKKKXXXX

Data set [3] has as its target T3, NE nanosensor with pentafluoropropylamine reporter (peptide-PFC conjugated to a 40 kDa 8-arm PEG scaffold).
T3 chain: CKKKXXXX

For data set [4], the target named is T4, NE peptide substrate with acetylated N-terminal CKKK-PEG4 linker and C-terminal pentafluoropropylamine reporter (peptide-PFC) (not fully specified).
T4 chain: CKKKXXXX

B1: neutrophil elastase (NE) (protein)
chain: IVGGRRARPHAWPFMVSLQLRGGHFCGATLIAPNFVMSAAHCVANVNVRAVRVVLGAHNLSRREPTRQVFAVQRIFENGYDPVNLLNDIVILQLNGSATINANVQVAQLPAQGRRLGNGVQCLAMGWGLLGRNRGIASVLQELNVTVVTSLCRRSNVCTLVRGRQAGVCFGDSGSPLVCNGLIHGIASFVRGGCASGLYPDAFAPVAQFVNWIDSIIQ
Regarding B1, the “kcat/Km (Michaelis-Menten kinetics of substrate cleavage)” value in data set [1] and in data set [3] was “kcat/Km values were on the order of 10^5 M^-1s-^-1” in each case. The “PFC release from the peptide substrate (real-time vapor analysis mass spectrometry)” value in data set [2] and in data set [4] was “cleaved specifically by NE” in each case.
